Tests used:
[1] = biological target: T1, human IL-6 receptor (hIL-6R) (Homo sapiens, UniProt P08887); test: phage ELISA for hIL-6R binding in the presence/absence of small molecule cocktail (SC); settings: absorbance at 450 nm
T1 sequence (P08887 20-357 limits assumed): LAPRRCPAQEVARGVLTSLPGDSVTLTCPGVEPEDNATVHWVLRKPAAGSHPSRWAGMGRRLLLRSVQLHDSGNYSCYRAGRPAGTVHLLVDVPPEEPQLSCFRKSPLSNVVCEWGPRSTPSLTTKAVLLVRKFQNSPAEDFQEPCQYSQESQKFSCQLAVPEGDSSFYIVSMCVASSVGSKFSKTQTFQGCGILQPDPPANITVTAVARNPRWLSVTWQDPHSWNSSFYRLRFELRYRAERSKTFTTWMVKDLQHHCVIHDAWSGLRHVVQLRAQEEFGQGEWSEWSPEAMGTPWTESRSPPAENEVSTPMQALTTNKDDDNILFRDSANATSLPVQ
Procedure: From a single colony of E. coli obtained in (6-1), a phage-containing culture supernatant was collected according to a conventional method (Methods Mol. Biol. (2002) 178, 133-145). […] A StreptaWell 96 microtiter plate (Roche) was coated overnight with 100 μL of TBS containing biotin-labeled hIL-6R. […] After removing 2% skim milk/TBS, purified phages were added to each well of the plate, and the plate was left still at room temperature for one hour to allow antibody-presenting phages to bind to biotin-labeled hIL-6R present in each well in the presence/absence of SC. Each well was washed with TBST or SC/TBST, and HRP-conjugated anti-M13 antibody (Amersham Pharmacia Biotech) diluted with TBS or SC/TBS was added thereto, and the plate was incubated for one hour. After washing with TBST or SC/TBST, the chromogenic reaction of TMB single solution (ZYMED) added in each well was terminated by adding sulfuric acid. Then, the color development was measured by absorbance at 450 nm.

[2] = biological target: T1, human IL-6 receptor (hIL-6R); test: IgG ELISA for hIL-6R binding under small molecule conditions of Table 12; settings: IgG 2.5 μg/mL
Procedure: Three types of obtained antibodies 6RNMSC1-2_F02, 6RNMSC1-3_G02, and GC413 were subjected to ELISA under the nine conditions shown in Table 12. The antigen used was biotin-labeled hIL-6R.
First, a StreptaWell 96 microtiter plate (Roche) was coated with 100 μL of PBS containing biotin-labeled hIL-6R at room temperature for one hour or longer. […] 100 μL of each of the purified IgGs prepared at 2.5 μg/mL using Sample Buffer containing small molecules at the final concentrations shown in Table 12 were added to each well, and the plate was let still at room temperature for one hour to allow each IgG to bind to biotin-labeled hIL-6R present in each well. After washing with Wash Buffer containing small molecules at the final concentrations shown in Table 12, HRP-conjugated anti-human IgG antibody (BIOSOURCE) diluted with Sample Buffer containing the same small molecules was added to each well and the plate was incubated for one hour. After washing with Wash Buffer containing respective small molecules, the chromogenic reaction of TMB single solution (ZYMED) added in each well was terminated by adding sulfuric acid. Then, the color development was measured by absorbance at 450 nm.

[3] = biological target: T1, human IL-6 receptor (hIL-6R); test: SPR dissociation of antibody from immobilized hIL-6R with or without kynurenine; type: binding; settings: bound in 100 μmol/L kynurenine, then buffer without kynurenine
Procedure: The running buffers used were 20 mmol/L ACES, 150 mmol/L NaCl, 0.05% (w/v) Tween 20, pH 7.4, and 20 mmol/L ACES, 150 mmol/L NaCl, 0.05% (w/v) Tween 20, pH 7.4, 100 μmol/L kynurenine. The measurements were performed at 25° C. As an analyte, 5 μg/mL 6RNMSC1-2_F02 diluted with 20 mmol/L ACES, 150 mmol/L NaCl, 0.05% (w/v) Tween 20, pH 7.4, containing 100 μmol/L kynurenine was allowed to interact for 180 seconds with hIL-6R immobilized onto Sensor chip CM5 by amine coupling. Then, the mode of the dissociation of hIL-6R was observed under each running buffer condition. […] Specifically, the regulation by kynurenine on binding of the antibody to hIL-6R was confirmed to be reversible.

[4] = SPR (Biacore T200) binding of 6RNMSC1-2_F02 and variants to kynurenine
Procedure: An appropriate amount of protein A (Invitrogen) was immobilized onto Sensor chip CM4 (GE Healthcare) by the amine coupling method. The antibody of interest was captured thereon, and the antigen kynurenine and derivatives thereof were allowed to interact. The running buffer used was 50 mmol/L Tris-HCl, 150 mmol/L NaCl, 0.02% (w/v) Tween 20, 5% DMSO, pH 7.6. All measurements were carried out at 15° C. The antigens were diluted with the running buffer.
Then, the running buffer was run at a flow rate of 30 μL/min for 60 seconds to observe the dissociation of antigens from the antibody. Kinetic parameters, the association rate constant ka (1/Ms) and the dissociation rate constant kd (l/s), were calculated based on the sensorgrams obtained by the measurements. The dissociation constant KD (M) was calculated from these constants. Each parameter was calculated using Biacore T200 Evaluation Software (GE Healthcare).
(§1) Meanwhile, the type of sensor chip immobilized with Protein A was changed to Sensor chip Series S CM3 (GE Healthcare) to measure some of the variants. When kynurenine dissociation was too fast to determine the dissociation rate constant, a dissociation constant KD (M) was calculated by analysis of equilibrium values based on the degree of binding response during the interaction with each antigen (association phase). In this case also, Biacore T200 Evaluation Software (GE Healthcare) was used to calculate the parameters.
as §1
(§2) When kynurenine dissociation was too fast to determine the dissociation rate constant, the dissociation constant KD (M) was calculated by analysis of equilibrium values based on the degree of binding response when it is interacted with each antigen (association phase). Also in this case, the Biacore T200 Evaluation Software (GE Healthcare) was used to calculate parameters. […] Each variant and its parental antibody F02h011/F021003 were compared in terms of the KD value for kynurenine.
as §2, with “analyzing” for “analysis of”, “sequence” for “antibody”

B1: 6RNMSC1-2_F02: antibody binding hIL-6R in the presence of kynurenine; heavy chain SEQ ID NO: 32, light chain SEQ ID NO: 33 (antibody, listed as Homo sapiens, V domains shown)
VH: QVQLVQSGAEVKKPGSSVKVSCKASGGTFSSYAISWVRQAPGQGLEWMGGIIPIFGTANYAQKFQGRVTITADESTSTAYMELSSLRSEDTAVYYCARDAPVVARPRGAFDIWGQGTMVTVSS
VL: DIVMTQTPLSSPVTLGQPASISCRSSQSLVHSDGNTYLSWLQQRPGQPPRLLIHEISNRFSGVPDRFSGSGAGTNFTLKISRVEAEDVGVYYCMQATQFPRTFGQGTKVEIK
- binding activity to the antigen hIL-6R in the presence of a small molecule mixture [1]: having binding activity
- absorbance under condition 9 (no small molecule) compared to condition 8 (cocktail of all small molecules) ([2]; absorbance at 450 nm): significantly lower
- small molecule in whose presence the antibody binds hIL-6R ([2]; conditions 1-9 of Table 12, absorbance at 450 nm): binds to the antigen hIL-6R in the presence of kynurenine
- dissociation from hIL-6R when kynurenine is no more present [3]: rapidly dissociating hIL-6R
- kynurenine binding (in words) ([4]; Biacore): confirmed once again to bind to kynurenine
- Kd ([4]; Biacore T200, 15° C., 5% DMSO): 239 µM
- ka for kynurenine ([4]; Biacore T200, 15° C., 5% DMSO): 709 M⁻¹ s⁻¹
- kd for kynurenine ([4]; Biacore T200, 15° C., 5% DMSO): 0.17 L/s
